Test results published in PMC7517697.

Test system: T1, CATH-B1 (mature cathelicidin-B1 peptide) (chicken)
T1 sequence: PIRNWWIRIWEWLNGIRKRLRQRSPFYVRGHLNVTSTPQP
Experiment: ITC
Conditions: 75% PBS, 37 °C, dH -65.5 kJ/mol, dS -73.5 J/mol as printed, ITC: 75% PBS (PBS/H2O 3:1 v/v), 200 µM CATH-B1 in syringe titrated in 1 µL injections at 300 s intervals into ODN-2006 (25 nM as printed), pH not stated

ODN-2006 showed a Kd of 64 nM.
